Positions count from the first letter of the chain named.
T1: Recombinant human FAP (fibroblast activation protein) (human, UniProt Q12884 26-760)
T1 sequence (looked up): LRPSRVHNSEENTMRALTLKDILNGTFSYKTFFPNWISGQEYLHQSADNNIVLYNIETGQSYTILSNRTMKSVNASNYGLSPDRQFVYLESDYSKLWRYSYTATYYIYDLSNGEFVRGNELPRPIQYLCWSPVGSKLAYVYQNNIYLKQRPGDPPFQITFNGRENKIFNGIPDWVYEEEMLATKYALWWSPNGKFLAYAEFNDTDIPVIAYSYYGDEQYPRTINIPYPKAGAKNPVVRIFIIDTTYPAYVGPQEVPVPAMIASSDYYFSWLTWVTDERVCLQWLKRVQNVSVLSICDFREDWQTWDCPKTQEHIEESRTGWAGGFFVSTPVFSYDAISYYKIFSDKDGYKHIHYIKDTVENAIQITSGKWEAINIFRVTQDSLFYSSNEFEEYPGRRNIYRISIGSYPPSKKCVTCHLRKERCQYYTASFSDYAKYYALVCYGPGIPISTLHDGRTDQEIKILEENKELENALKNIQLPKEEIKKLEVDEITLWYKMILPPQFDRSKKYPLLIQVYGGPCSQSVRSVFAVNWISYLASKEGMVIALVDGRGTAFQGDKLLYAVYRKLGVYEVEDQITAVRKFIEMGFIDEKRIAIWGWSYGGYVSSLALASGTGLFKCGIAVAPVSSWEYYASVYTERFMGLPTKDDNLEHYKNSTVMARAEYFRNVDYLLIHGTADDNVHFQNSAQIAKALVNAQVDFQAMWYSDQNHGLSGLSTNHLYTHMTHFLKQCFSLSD

T2: Human FAP expressed on the cell surface (WI38, CHO-FAP1.9, U87MG cells) (human, UniProt Q12884 1-760)
T2 construct: whole, on cells; Endogenous on WI38 and U87MG cells; from a human FAP cDNA (OriGene) in CHO-FAP1.9 cells; also called hFAP; FAP+ cells
T2 sequence (looked up): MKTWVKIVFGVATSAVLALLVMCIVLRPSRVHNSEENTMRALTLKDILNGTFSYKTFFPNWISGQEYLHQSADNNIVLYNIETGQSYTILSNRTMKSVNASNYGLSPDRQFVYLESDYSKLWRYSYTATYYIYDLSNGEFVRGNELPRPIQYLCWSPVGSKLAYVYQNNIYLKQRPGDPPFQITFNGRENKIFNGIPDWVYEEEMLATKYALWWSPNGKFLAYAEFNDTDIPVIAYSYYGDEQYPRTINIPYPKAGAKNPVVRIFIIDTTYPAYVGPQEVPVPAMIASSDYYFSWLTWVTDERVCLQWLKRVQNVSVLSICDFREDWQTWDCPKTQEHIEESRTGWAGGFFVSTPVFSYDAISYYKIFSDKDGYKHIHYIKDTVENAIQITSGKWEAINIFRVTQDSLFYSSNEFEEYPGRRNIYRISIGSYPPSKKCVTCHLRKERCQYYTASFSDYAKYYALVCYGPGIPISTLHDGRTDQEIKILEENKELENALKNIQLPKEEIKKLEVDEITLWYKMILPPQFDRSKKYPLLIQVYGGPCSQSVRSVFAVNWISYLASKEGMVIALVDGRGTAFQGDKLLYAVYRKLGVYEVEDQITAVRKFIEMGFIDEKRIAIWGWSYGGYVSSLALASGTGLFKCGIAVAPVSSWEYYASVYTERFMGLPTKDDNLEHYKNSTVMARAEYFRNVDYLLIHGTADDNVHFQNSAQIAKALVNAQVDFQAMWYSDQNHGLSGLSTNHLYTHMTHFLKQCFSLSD

B1: DARPin® protein #16 (designed binder)
chain: MRGSHHHHHHGSYPYDVPDYAGSDLGKKLLEAARAGQDDEVRILMANGTDVNATDMTGRTPLHLAALYGHLEIVEVLLKYGADVNALDKFGITPLHLAAFMGHLEIVEVLLKYGADVNAADLDGRTPLHPTAYRGHLEIVEVLLKNGADVNAQDKFGKTAFDISIDNGNEDLAEILQKLN
B2: DARPin® protein #14 (designed binder)
chain: MRGSHHHHHHGSYPYDVPDYAGSDLGKKLLEAARAGQDDEVRILLAAGADVNAKDYSGRTPLHLAALTGHLEIVKVLLKHGADVNASDDYGITPLHLDAFIGHLEIVEVLLKNGADVNAMDYQGRTPLHPAAYTGHLEIVEVLLKYGADVNAQDKFGKTAFDISIDNGNEDLAEILQKLN
B3: DARPin® protein #17 (designed binder)
chain: MRGSHHHHHHGSYPYDVPDYAGSDLGKKLLEAARAGQDDEVRILMANGADVNATDLMGRTPLHLAASRGHLEIVEVLLKNGADVNADDKYGITSLHLAAFLGHLEIVEVLLKYGADVNAIDFDGRTPLHPAAYRGHLEIVEVLLKHGADVNAQDKFGQTAFDISIDNGNEDLAEILQKLN
B4: DARPin® protein #12 (designed binder)
chain: MRGSHHHHHHGSYPYDVPDYAGSDLGKKLLEAARAGQDDEVRILLAAGADVSAKDQWGWTPLHLAARVGHLEIVEVLLKAGADVNAKDVRGVTPLHLAAFHGHLEIVEVLLKAGADVNAKDYAGHTPLHLAAWQGHLEIIEDLLKAGADVNAQDKSGKTPADLAADAGHEDIAEVLQKLN
B5: DARPin® protein #13 (designed binder)
chain: MRGSHHHHHHGSYPYDVPDYAGSDLGKKLLEAARAGQDDEVRILLAAGADVNAKDDWGWTPLHLAARHGHLEIVEVLLKAGTDVNAKDKRGVTPLHLAAYIGHLEIAEVLLKAGADVNAKDFQGWTPLHLAAVRGHLEIVEVLLKAGADVNAQDKSGKTPADLAADAGHEDIAEVLQKLN
B6: DARPin® protein #11 (designed binder)
chain: MRGSHHHHHHGSYPYDVPDYAGSDLGKKLLEAARAGQDDEVRILLAAGADVNAKDTWGWTPLHLAAKSGHLEIVEVLLKAGADVNAKDYHGVTPLHLATFWGHLEIVEVLLKAGADVNAKDWYGETPLHLAAIRGHLEIVEVLLKAGADVNAQDKSGKTPADLAADAGHEDIAEVLQKLN
B7: DARPin® protein #5 (designed binder)
chain: MRGSHHHHHHGSYPYDVPDYAGSDLGYTLLEAARRGQDDEVRELLKAGADVNAKDTIGYTPLHYAAQVGHLEIVEVLLKAGADVNAKDTQGITPLHVAAATGHLEIVEVLLKAGADVNAQDSKGRTPADLAAEQGHEDIAEVLQKLN
B8: DARPin® protein #25 (designed binder)
chain: MRGSHHHHHHGSYPYDVPDYAGSDLGYKLLEAARRGQDDEVRELLKAGADVNAKDVIGYTPLHYAASEGHLEIVEVLLKAGADVNAKDTKGITPLHVAASTGHLEIVEVLLKAGADVNAQDLRGYTPADLAARQGHEDIGEVLQKLN
B9: DARPin® protein #6 (designed binder)
chain: MRGSHHHHHHGSYPYDVPDYAGSDLGKKLLEAARAGQDDEVRELLKAGADVNAKDEWGKTPLHYAAALGHLEIVEVLLKAGADVNAKDQYGATPLHIAAFAGHLEIVEVLLKAGADVNAKDAWGFTPLHLAATRGHLEIVEVLLKAGADVNAQDKSGKTPADLAADAGHEDIVEVLQKLN
B10: DARPin® protein #8 (designed binder)
chain: B9 chain with E56Q, W57H, Q89R, Y90W, A122E, W123V, F125W, T133R, R134F
B11: DARPin® protein #31 (designed binder)
chain: MRGSHHHHHHGSYPYDVPDYAGSDLGKKLLEAARAGQDDEVRELLKAGADVNAKDEFGKTPLHLAAALGHLEIVEVLLKAGADVNAKGLWGETPLHVAAFAGHLEIVEVLLKAGADVNAKDTYGYTPLHLAASRGHLEIVEVLLKAGADVNAQDKSGKTPADLAADAGHEDIAEVLQKLN
B12: DARPin® protein #20 (designed binder)
chain: MRGSHHHHHHGSYPYDVPDYAGSDLGEKLLIAALFGQDEEVRILLAAGADVNAKDEWGHTPLHKAALSGHLEIVEVLLKAGADVNAKDQKGSTPLHWAATRGHLEIVEVLLKAGADVNAQDHIGRTPADLAANFGHEDIAEVLQKLN
B13: DARPin® protein #1 (designed binder)
chain: MRGSHHHHHHGSYPYDVPDYAGSDLGKKLLEAARAGQDDEVRILLAAGADVNAKDQYGITPLHLAAFRGHLEIVEVLLKHGAGVNADDMDGRTPLHPAAYKGHLEIVEVLLKNGADVNAQDKFGKTAFDISIDNGNEDLAEILQKLN
B14: DARPin® protein #10 (designed binder)
chain: B13 chain with A33T, Q56E, G83D, D87I, M89Y, D90N, K101S, N113Y

target: T1, Recombinant human FAP (fibroblast …); assay: cell-based or functional assay

Binder	FAP activity (%)
B1	97
B2	86
B3	96
B4	114
B5	88
B6	117
B7	103
B8	110
B9	146
B10	97
B11	123
B12	104
B13	115
B14	120

target: T1, Recombinant human FAP (fibroblast …); assay: SPR (ProteOn), human FAP immobilized on GLC chip
Experimental: Briefly, human FAP was diluted in 10 mM Na-acetate pH 5.3 buffer and covalently immobilized on a GLC chip (BioRad) to a level of around 2000 resonance units (RU). The interaction of ankyrin repeat protein and hFAP was then measured by injecting 200 μl running buffer (PBS, pH 7.4 containing 0.005% Tween 20®) containing serial dilutions of ankyrin repeat proteins covering a concentration range between 30 nM and 0.5 nM (on-rate measurement), followed by a running buffer flow for at least 25 minutes at a constant flow rate of 100 μl/min (off-rate measurement). The regeneration was performed using 15 μl of 10 mM Glycine pH 2 followed by 15 μl of 124 mM H₃PO₄. The signals (i.e. resonance unit (RU) values) of the interspots and a reference injection (i.e. injection of running buffer only) were subtracted from the RU traces obtained after injection of ankyrin repeat protein (double-referencing). Based on the SPR traces obtained from the on-rate and off-rate measurements, the on- and off-rate of the corresponding ankyrin repeat protein—FAP interaction was determined.
Dissociation constants (KD) were calculated from the estimated on- and off-rates using standard procedures known to the person skilled in the art. […] Table 1 provides the KD values of some selected ankyrin repeat proteins as examples.

Binder	Kd [nM]
B1	0.023
B2	0.007
B3	0.063
B4	0.194
B5	0.01
B6	0.057
B9	0.303
B10	0.12
B11	0.097
B12	0.115
B13	3.6
B14	10.4

target: T2, Human FAP expressed on the cell surface …; assay: FACS on FAP-expressing WI38 cells, Penta-His AF647 detection
Experimental: Using multi-well plates, 20,000 WI38 cells were added per well in 50 μl of PBS. 50 μl of appropriate dilutions (2× dilution steps) of ankyrin repeat protein was then added to the cells and incubated for 30 minutes on ice. After the ankyrin repeat protein-binding reaction, cells were washed twice with PBS. Direct immunofluorescent detection of the His-tagged ankyrin repeat proteins using Penta-His AF647 conjugate (QIAgen) and determination of live cells using LIVE/DEAD™ Fixable Green Dead Cell Stain Kit (ThermoFisher) were then performed together in one step. The Penta-His AF647 conjugate and the LIVE/DEAD™ Fixable Green dye were applied to the cells together in 1/200 (Penta-His) and 1/1000 (LID Fixable) final dilutions and incubated for 20-30 minutes on ice. After washing the cells with PBS, cells were re-suspended in 1× CellFix™ buffer (BD Biosciences) (10× stock was diluted 1/10 in water). The samples were incubated in CellFix™ buffer for 15-20 minutes at RT, then spun down at 400 g for 5 min. Supernatant was discarded and cells were re-suspended in 200 μl PBS and stored at 4° C. until acquisition and FACS analysis. Acquisition and FACS analysis, including the determination of median fluorescence intensity (MFI), were done within 5 days after staining using an AttuneNxT instrument. Binding curves were fitted by non-linear regression curve fitting using GraphPad Prism software (v 7.0.4).
EC₅₀ values were determined using standard procedures known to the person skilled in the art. […] Table 2 provides the EC₅₀ values of selected ankyrin repeat proteins as examples.

Binder	EC50 [nM]
B2	0.246
B4	0.789
B5	0.307
B6	0.523
B7	0.654
B13	3.17
B14	0.512

Reference: US20220242973A1 (Molecular Partners, published 2022)
